Reference: publication PMC3714538

These substances were tested against LC3B (protein of the ITC experiments) (UniProt Q9GZQ8) (assay: ITC).

Kd	Substance
5 µM	OPTN peptide LIR_Ptot (all serines phosphorylated) (from UniProt Q96CV9 169-184)
13 µM	OPTN peptide LIR_P1 (pSer177) (from UniProt Q96CV9 169-184)
67 µM	OPTN peptide LIR_P0 (no phosphorylation) (from UniProt Q96CV9 169-184)
